Measurements taken from the DeepSol protein solubility set.

Assay: soluble on expression in E. coli; label from the status in PepcDB or PDB records

Row | Sequence | soluble on expression in E. coli
1 | MGTVHARSLDPLPMNGPDFGSPDDADLVEVEPQKKQEILENKDVVVQRVHFEGLGRTKDDLVAHEIGQVFKAKNLIEVMRKSHEAREKLLRLGVFRNVEVLIDTCEGEDAVPNGLDVTFEVTELRRVTGSYNTMVGNNEGSMVLGLKLPNLFGRAEKMTFQFSYGTKETSYGLSFFKPQVGNFERNFSVNLYKVTGQFPWSSLRETDRGVSAEINFPIWKTSHTLKWEGVWRELGCLARTASFTIREESGHTLKSSLSHSMVIDSRNASILPKSGALLKINQELAGYTGGDVSFLKEDFELQLNRQLTWDSVLSTSLWGGMLVPIGDRPSSIADRFYLGGPTSVRGFSMYSIGPQSEGDYLGGEAYWAGGVHLYTPLPFRPGRGGFGDLFRTHFFLNAGNLCNLNYGEGPGAHLRRLAECIRWSYGAGLVLRLGNIARLELNYCIPMGVQSGDRICDGVQFGAGIRFL | soluble
2 | TQVYKAKFGTPNRGWVIIVHGLGEHSGRYSKLVSMLVNEGYAVYTFDWPGHGKSPGKRGHTSVEEAMEIIDFIIEEINDKPFLFGHSLGGLTVIRYAETRPEKIRGVIASSPALAKSPKTPSFMVALAKILGVLLPSLTLSNGIDPNLLSRNPDAVKRYIEDPLVHDRISAKLGRSIFKNMDLAHREAHKIKVPVLLLVGTGDVITPPEGARKLYGEIKVEDKEIVEFEGAYHEIFEDPEWGEEFHKKIVEWIKKH | not soluble
3 | MGSDKIHHHHHHMKIAIEAQRIFRKEKHGMDYVALETIRELQKIDQQNEYFILVSPGDDVCLQESANMHIVTVNWPSYPLWEQIGLPLALKKIKPDLLHCTSNTAPVHGNIPLVLTLHDIIFLEKKQGKNQSMYQRLGRFYRKIIVPQILTKCKRIITVSHFECNRISHFLHIDKQLLVAVYNGYSQHFIPIRNAQAITARYIKNHPYLFFLGNTDPKKNTARVLQAYGIYLKKSSQPLPLLIADLKEEIIDEYLNREGLQEIKKMLYHPGYIPNTELPAVYSGASVFIYTSLRESFGIPILEAMACGTPVITSTTSAMPEIAGPEGILVNPFEPEEIASALLHLEENAEFYQSQTAYGLERVRRFSWENTAREILNIYKEILA | not soluble
4 | MSLAKITGGYTATGSAADTMNALAVDDNQSSSGYDRDSFGFRTTDVDGNGCDVRDDVLARDLTDITYKYAGSCVVESGTLADPYTAQTIHFVRGRATSAKVQIDHVVALENAWQSGARDWSTAKRHEFGNDPYNLMAVDGPANQEKGSASAAYWMPTNADYRCDYVARQIGVKDKYQLTVTSQEKDAMLAVLHTCPGQAVPADEEGHHHHHH | soluble
5 | AHHHHHHGSGVEKVPKYDIPVKKVEYVFIELDKMKPHEQLVQRELEDFIESVTGSGIFWKPMLLAKIPGTDEYLIVDGHHRWAGLQKLGAKRAPSVILDYFDEGVKVYTWYPAFKGDVNKVIERLKAEGLEVIEDEKAEEKAEKGEIAFALIGEKSFAIPGGLEEQKKVSKVLDEMDQAKEIELVYYGLKEDAKADMEKGEIDYVFIRKAPTKEEVMELVKRGEVFSPKTTRHVLPFIPDKIDVKLEDLF | soluble
6 | AARLPVAPRHLPTLEKFRAEQPTVQGTSTPTISANAALLIGSLLQSEKLPFEVMAARLSPERYALQQFHGSDLQQMLGRFAEPGHLPGKAETEQLIKGFARSLADQLEHFQLMHDATAEAFGPGGLRDRNTLAVSQAALGEYAGRASKSIEAGLNHSLAVLDERIAALDSQLEGATEDSRPVLLMDRQALETARAMLSDLHVDFCKSPEAKRLSAVAAHTQMDALIDKLNVDRSSVGGWKGIGPIVAAAVPQFMVSMLHLGYIRTATSDAMKDAVPEKSADASMKRALAVGLTAGVAHEGVTNLLKPMVQAGFQKAGLNERLNMVPLKGIDTDSVIPDPFELKNDNGALVRKTPEEAAEDKAFVASERAVLNQKKVQVSSTHPLGEMIPYGAFGGGQAVRQMLNDFNLLNGQTLSARAVTSGIAGAISATTQTIAQLNSTYVDPRGRKIPVFTPDRANADLGKDLAKGLDLREPAVRTAFYSKAVSGVQSAALNGALPSVAVQPQGASGTLSAGNIMRNMALAATGSVSYLSTLYANQSVTAEAKALKEAGMGGATPMVARTETALSNIRHPDRASLPHTFQPDTLGGVPRAVENAYHMARGALQLPTQVVVDTVRVVEDGVASGVSSLRDAHKPAET | not soluble
7 | MSELVEMEVHGITLDPTTQMPIVVLKGKEDENLILPIWIGAFEANGIAMKLQGVEPPRPMTYELLKNIITEMGGNVEKVVINDLKDSTYYAEIYINQGNNTLVIDSRPSDAINLALRFGAPIYVAEHVLEQSKLPEPEEDEEKKKLREWLENIKPEDFEIGGEKSLEHHHHHH | soluble
